Measurements taken from patent publication US20220332804A1 (CSL INNOVATION, published 2022).

Columns and labels:
Experiment in all cases: SPR, antibody captured, C2 as analyte;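 note: biacore at 37 °C, anti-C2 mAbs held by immobilised goat anti-human IgG, C2 alanine or serine mutants injected, double-referenced sensorgrams fitted to a 1:1 kinetic or steady-state model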
[1] = target: T1, human C2 E433A (human, UniProt P06681 21-752)
T1 sequence: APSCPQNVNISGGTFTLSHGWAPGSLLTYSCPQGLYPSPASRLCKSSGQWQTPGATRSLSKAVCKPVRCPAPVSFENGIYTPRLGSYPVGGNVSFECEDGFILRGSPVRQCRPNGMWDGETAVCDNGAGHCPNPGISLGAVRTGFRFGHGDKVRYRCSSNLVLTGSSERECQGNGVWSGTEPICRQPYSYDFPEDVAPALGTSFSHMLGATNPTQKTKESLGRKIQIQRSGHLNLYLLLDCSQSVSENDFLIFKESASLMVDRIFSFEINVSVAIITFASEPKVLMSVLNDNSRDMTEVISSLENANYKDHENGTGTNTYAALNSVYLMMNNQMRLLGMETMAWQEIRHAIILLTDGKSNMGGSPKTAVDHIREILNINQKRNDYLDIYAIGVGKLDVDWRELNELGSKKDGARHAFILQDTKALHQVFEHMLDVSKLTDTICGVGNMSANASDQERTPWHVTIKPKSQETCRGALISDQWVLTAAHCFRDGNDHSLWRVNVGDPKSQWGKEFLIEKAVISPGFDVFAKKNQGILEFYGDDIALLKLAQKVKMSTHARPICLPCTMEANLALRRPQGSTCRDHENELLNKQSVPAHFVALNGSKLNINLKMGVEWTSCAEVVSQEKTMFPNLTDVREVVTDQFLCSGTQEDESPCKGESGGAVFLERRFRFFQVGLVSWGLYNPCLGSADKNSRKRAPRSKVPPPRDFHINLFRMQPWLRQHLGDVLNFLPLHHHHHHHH

[2] = target: T2, human C2 D441A (human, UniProt P06681 21-752)
T2 sequence: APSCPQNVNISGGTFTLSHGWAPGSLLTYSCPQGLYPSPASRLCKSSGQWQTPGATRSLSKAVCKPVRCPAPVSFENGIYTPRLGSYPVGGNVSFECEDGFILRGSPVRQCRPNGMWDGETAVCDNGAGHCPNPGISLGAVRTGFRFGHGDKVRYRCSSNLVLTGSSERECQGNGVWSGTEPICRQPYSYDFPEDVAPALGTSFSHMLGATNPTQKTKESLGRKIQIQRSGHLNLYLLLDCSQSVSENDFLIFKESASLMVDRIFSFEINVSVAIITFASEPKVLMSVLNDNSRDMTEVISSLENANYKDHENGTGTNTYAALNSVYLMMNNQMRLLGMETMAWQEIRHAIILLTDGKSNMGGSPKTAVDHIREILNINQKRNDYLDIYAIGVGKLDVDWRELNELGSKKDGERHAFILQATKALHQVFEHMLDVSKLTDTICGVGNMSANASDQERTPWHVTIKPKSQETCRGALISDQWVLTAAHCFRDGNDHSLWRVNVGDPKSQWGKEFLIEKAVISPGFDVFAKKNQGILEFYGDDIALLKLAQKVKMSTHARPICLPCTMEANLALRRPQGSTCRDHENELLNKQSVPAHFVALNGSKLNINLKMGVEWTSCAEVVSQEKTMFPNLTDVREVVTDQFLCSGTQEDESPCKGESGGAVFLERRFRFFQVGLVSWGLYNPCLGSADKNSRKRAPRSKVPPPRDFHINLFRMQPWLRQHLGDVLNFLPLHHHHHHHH

[3] = target: T3, human C2 W420A (human, UniProt P06681 21-752)
T3 sequence: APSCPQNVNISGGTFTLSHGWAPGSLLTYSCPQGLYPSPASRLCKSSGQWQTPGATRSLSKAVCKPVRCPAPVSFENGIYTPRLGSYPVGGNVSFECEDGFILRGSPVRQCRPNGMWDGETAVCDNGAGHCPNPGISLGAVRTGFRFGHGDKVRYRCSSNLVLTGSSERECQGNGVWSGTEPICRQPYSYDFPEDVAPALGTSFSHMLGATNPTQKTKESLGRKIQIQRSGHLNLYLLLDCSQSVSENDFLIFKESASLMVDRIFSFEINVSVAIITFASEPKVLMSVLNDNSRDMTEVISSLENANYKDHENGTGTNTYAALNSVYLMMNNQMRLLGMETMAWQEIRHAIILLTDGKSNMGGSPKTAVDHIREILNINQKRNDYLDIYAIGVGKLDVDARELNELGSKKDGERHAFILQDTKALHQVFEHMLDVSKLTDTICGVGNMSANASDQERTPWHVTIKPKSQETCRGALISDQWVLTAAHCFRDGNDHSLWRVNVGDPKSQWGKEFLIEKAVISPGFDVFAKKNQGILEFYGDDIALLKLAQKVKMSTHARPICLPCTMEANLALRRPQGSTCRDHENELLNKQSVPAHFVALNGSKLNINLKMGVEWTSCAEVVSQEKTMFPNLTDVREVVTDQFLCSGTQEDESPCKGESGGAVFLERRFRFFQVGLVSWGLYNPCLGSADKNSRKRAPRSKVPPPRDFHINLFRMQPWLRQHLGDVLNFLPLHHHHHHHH

[4] = target: T4, human C2 Q447A (human, UniProt P06681 21-752)
T4 sequence: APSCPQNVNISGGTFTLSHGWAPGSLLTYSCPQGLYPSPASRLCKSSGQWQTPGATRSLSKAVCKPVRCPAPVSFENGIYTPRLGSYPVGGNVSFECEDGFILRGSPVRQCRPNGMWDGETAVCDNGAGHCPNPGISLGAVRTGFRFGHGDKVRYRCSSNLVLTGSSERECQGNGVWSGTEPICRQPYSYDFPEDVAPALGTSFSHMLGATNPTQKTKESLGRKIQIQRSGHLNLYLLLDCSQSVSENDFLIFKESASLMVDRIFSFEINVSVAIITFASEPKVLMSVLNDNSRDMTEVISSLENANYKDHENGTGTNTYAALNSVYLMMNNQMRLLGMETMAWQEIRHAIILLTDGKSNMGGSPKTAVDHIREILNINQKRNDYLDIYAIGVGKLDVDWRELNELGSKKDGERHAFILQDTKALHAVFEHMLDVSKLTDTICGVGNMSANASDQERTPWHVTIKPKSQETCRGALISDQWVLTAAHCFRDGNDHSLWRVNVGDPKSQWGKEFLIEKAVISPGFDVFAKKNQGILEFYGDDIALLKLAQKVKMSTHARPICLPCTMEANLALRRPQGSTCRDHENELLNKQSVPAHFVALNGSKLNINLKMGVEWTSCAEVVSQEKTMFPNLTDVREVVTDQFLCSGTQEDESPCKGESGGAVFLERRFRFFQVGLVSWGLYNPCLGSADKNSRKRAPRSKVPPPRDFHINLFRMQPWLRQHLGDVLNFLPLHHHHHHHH

B1: RF16-242 (antibody, human IgG4 S228P, lambda, V domains shown)
VH: EVQLLQSGAEVKKPGESLKISCKGSGYSFTSYWIGWVRQMPGKGLEWMGIIYPGDSDTRYSPSFQGQVTISADKSISTAYLQWSSLKASDTAMYYCARRGHYGDYFDYWGQGTLVTVSS
VL: SYELTQPPSVSVSPGQTARITCSGDALPKKYAYWYHQKSGQAPVLVIYEDRRRPSEIPERFSGSSSGTMATLTITGAQVEDEGVYFCYSRDRAGNQRVFGGGTQLTVLG
notes: pH-dependent anti-C2 antibody from a phage display library
Work on B1 yielded a Kd [1] of 3 nM, a Kd [2] of 114 nM and a Kd [3] of 13.2 nM. It also gave a Kd [4] of 26 nM.
